The sequences below were run on Escherichia coli TOP10 (assay: shrunken log2 fold change of peptide-encoding DNA abundance (4.5 h post-induction vs induction); higher = less antimicrobial activity (less host growth inhibition)). Settings: time post-induction: 4.5 h; library: site-saturation at positions 5, 18, 19, 20.
For RRIRRRPPRLPRPRPRPCFVPRP, the “shrunken log2 fold change” value was 0.0292. RRIRFRPPRLPRPRPRPILTPRP was tested, and the “shrunken log2 fold change” value was -0.689. For RRIRYRPPRLPRPRPRPTNWPRP, the “shrunken log2 fold change” value was -0.185. For RRIRYRPPRLPRPRPRPCKTPRP, the “shrunken log2 fold change” value was -0.154. In the case of RRIRIRPPRLPRPRPRPDNAPRP, the “shrunken log2 fold change” value is reported as -0.717. RRIRTRPPRLPRPRPRPEGPPRP was tested, and the “shrunken log2 fold change” value was 0.285. In the case of RRIRQRPPRLPRPRPRPSNRPRP, the “shrunken log2 fold change” value is reported as -0.158. With RRIRQRPPRLPRPRPRPEDCPRP the “shrunken log2 fold change” value was 0.0138. For RRIRPRPPRLPRPRPRPRWAPRP, the “shrunken log2 fold change” value was 0.394. In the case of RRIRVRPPRLPRPRPRPHPEPRP, the “shrunken log2 fold change” value is reported as -0.155. In the case of RRIRCRPPRLPRPRPRPMRFPRP, the “shrunken log2 fold change” value is reported as 0.249. RRIRIRPPRLPRPRPRPNKIPRP was tested, and the “shrunken log2 fold change” value was -0.634. In the case of RRIRRRPPRLPRPRPRPETFPRP, the “shrunken log2 fold change” value is reported as -0.0525. In the case of RRIRLRPPRLPRPRPRPSDAPRP, the “shrunken log2 fold change” value is reported as 0.0959. For RRIRIRPPRLPRPRPRPEKAPRP, the “shrunken log2 fold change” value was -0.0795. For RRIRRRPPRLPRPRPRPIDSPRP, the “shrunken log2 fold change” value was -0.0316. RRIRHRPPRLPRPRPRPFLWPRP was tested, and the “shrunken log2 fold change” value was -0.353. In the case of RRIRGRPPRLPRPRPRPNKLPRP, the “shrunken log2 fold change” value is reported as -0.096. For RRIRQRPPRLPRPRPRPRLVPRP, the “shrunken log2 fold change” value was 0.211. For RRIRIRPPRLPRPRPRPLCTPRP, the “shrunken log2 fold change” value was -0.407. For RRIRMRPPRLPRPRPRPAPTPRP, the “shrunken log2 fold change” value was 1.13. For RRIRERPPRLPRPRPRPLSRPRP, the “shrunken log2 fold change” value was 0.00391. In the case of RRIRIRPPRLPRPRPRPGRMPRP, the “shrunken log2 fold change” value is reported as 0.198. With RRIRVRPPRLPRPRPRPMDDPRP the “shrunken log2 fold change” value was -0.312. RRIRVRPPRLPRPRPRPAILPRP was tested, and the “shrunken log2 fold change” value was -0.204. For RRIRHRPPRLPRPRPRPPICPRP, the “shrunken log2 fold change” value was -0.0463. With RRIRSRPPRLPRPRPRPNTHPRP the “shrunken log2 fold change” value was -0.413. RRIRDRPPRLPRPRPRPPCKPRP was tested, and the “shrunken log2 fold change” value was -0.129. RRIRIRPPRLPRPRPRPFIHPRP was tested, and the “shrunken log2 fold change” value was -0.872. RRIRTRPPRLPRPRPRPLMHPRP was tested, and the “shrunken log2 fold change” value was -0.454. For RRIRGRPPRLPRPRPRPIHGPRP, the “shrunken log2 fold change” value was -0.161. For RRIRARPPRLPRPRPRPVSMPRP, the “shrunken log2 fold change” value was 0.229. RRIRGRPPRLPRPRPRPPFKPRP was tested, and the “shrunken log2 fold change” value was 0.659. In the case of RRIRPRPPRLPRPRPRPYCNPRP, the “shrunken log2 fold change” value is reported as -0.481. With RRIRARPPRLPRPRPRPKPIPRP the “shrunken log2 fold change” value was 0.319. RRIRQRPPRLPRPRPRPRHFPRP was tested, and the “shrunken log2 fold change” value was 0.0257. RRIRARPPRLPRPRPRPEDSPRP was tested, and the “shrunken log2 fold change” value was 0.32. RRIRKRPPRLPRPRPRPGDCPRP was tested, and the “shrunken log2 fold change” value was 0.106. In the case of RRIRSRPPRLPRPRPRPSNGPRP, the “shrunken log2 fold change” value is reported as -0.0205. For RRIRWRPPRLPRPRPRPKGRPRP, the “shrunken log2 fold change” value was 0.0214. For RRIRWRPPRLPRPRPRPLLPPRP, the “shrunken log2 fold change” value was 0.676. With RRIRERPPRLPRPRPRPIEKPRP the “shrunken log2 fold change” value was 0.00242. With RRIRLRPPRLPRPRPRPFFCPRP the “shrunken log2 fold change” value was -0.0304. In the case of RRIRYRPPRLPRPRPRPSLNPRP, the “shrunken log2 fold change” value is reported as -0.646. With RRIRMRPPRLPRPRPRPRLAPRP the “shrunken log2 fold change” value was 2.7. With RRIRRRPPRLPRPRPRPCEAPRP the “shrunken log2 fold change” value was 0.127. With RRIRWRPPRLPRPRPRPCINPRP the “shrunken log2 fold change” value was -0.374. RRIRVRPPRLPRPRPRPNDFPRP was tested, and the “shrunken log2 fold change” value was -0.0485. For RRIRMRPPRLPRPRPRPQYQPRP, the “shrunken log2 fold change” value was -0.00342. RRIRYRPPRLPRPRPRPLKLPRP was tested, and the “shrunken log2 fold change” value was -0.772. RRIRKRPPRLPRPRPRPLKEPRP was tested, and the “shrunken log2 fold change” value was 0.0921. In the case of RRIRFRPPRLPRPRPRPITGPRP, the “shrunken log2 fold change” value is reported as -0.107. RRIRYRPPRLPRPRPRPHAGPRP was tested, and the “shrunken log2 fold change” value was 0.0561. In the case of RRIRMRPPRLPRPRPRPSTSPRP, the “shrunken log2 fold change” value is reported as -0.0821. For RRIRTRPPRLPRPRPRPCVVPRP, the “shrunken log2 fold change” value was -0.0223. In the case of RRIRRRPPRLPRPRPRPDWAPRP, the “shrunken log2 fold change” value is reported as -0.221. In the case of RRIRVRPPRLPRPRPRPPFGPRP, the “shrunken log2 fold change” value is reported as 0.298. In the case of RRIRWRPPRLPRPRPRPLQMPRP, the “shrunken log2 fold change” value is reported as 0.161. RRIRIRPPRLPRPRPRPARYPRP was tested, and the “shrunken log2 fold change” value was -0.264. In the case of RRIRNRPPRLPRPRPRPVHNPRP, the “shrunken log2 fold change” value is reported as -0.289. In the case of RRIRSRPPRLPRPRPRPKEGPRP, the “shrunken log2 fold change” value is reported as -0.0287. With RRIRLRPPRLPRPRPRPLYAPRP the “shrunken log2 fold change” value was -0.389. RRIRVRPPRLPRPRPRPHWRPRP was tested, and the “shrunken log2 fold change” value was 0.306. For RRIRWRPPRLPRPRPRPDAKPRP, the “shrunken log2 fold change” value was 0.0403. For RRIRWRPPRLPRPRPRPVNKPRP, the “shrunken log2 fold change” value was -0.0372. In the case of RRIRSRPPRLPRPRPRPGRNPRP, the “shrunken log2 fold change” value is reported as -0.225. With RRIRHRPPRLPRPRPRPKNRPRP the “shrunken log2 fold change” value was -0.227. RRIRERPPRLPRPRPRPLYRPRP was tested, and the “shrunken log2 fold change” value was -0.474. RRIRPRPPRLPRPRPRPHWQPRP was tested, and the “shrunken log2 fold change” value was 0.358. With RRIRVRPPRLPRPRPRPTVEPRP the “shrunken log2 fold change” value was 0.195. RRIRFRPPRLPRPRPRPEPAPRP was tested, and the “shrunken log2 fold change” value was 0.669. For RRIRGRPPRLPRPRPRPGGNPRP, the “shrunken log2 fold change” value was 0.0695. RRIRARPPRLPRPRPRPPRLPRP was tested, and the “shrunken log2 fold change” value was 0.829. With RRIRNRPPRLPRPRPRPNTQPRP the “shrunken log2 fold change” value was -0.148. With RRIRFRPPRLPRPRPRPQCYPRP the “shrunken log2 fold change” value was 0.04.
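Also: peptides expressed intracellularly from a pBAD plasmid library in pooled LB shake-flask culture, induced with 0.3% L-arabinose, DNA abundance read by NGS, three biological replicates, DESeq2 with apeglm shrinkage.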
